Test results published in patent US7732133B2, “Screening methods for biologically active ligands” (Chugai Seiyaku Kabushiki Kaisha, priority 2000, dated 2010).

Target: T1, chimeric LIF receptor (human LIF receptor and human gp130 / mouse G-CSF receptor) in Ba/F3 cell line LIG (Homo sapiens, UniProt P40189+P42702)
T1 construct: from the 1st to the 833rd amino acid residues; expressed in transfected cells; host or cells: mouse Ba/F3 cells co-transfected with pCV-cLIFR and pCV-cgp130, clone LIG#47 = LIG
T1 sequence (P42702 45-833): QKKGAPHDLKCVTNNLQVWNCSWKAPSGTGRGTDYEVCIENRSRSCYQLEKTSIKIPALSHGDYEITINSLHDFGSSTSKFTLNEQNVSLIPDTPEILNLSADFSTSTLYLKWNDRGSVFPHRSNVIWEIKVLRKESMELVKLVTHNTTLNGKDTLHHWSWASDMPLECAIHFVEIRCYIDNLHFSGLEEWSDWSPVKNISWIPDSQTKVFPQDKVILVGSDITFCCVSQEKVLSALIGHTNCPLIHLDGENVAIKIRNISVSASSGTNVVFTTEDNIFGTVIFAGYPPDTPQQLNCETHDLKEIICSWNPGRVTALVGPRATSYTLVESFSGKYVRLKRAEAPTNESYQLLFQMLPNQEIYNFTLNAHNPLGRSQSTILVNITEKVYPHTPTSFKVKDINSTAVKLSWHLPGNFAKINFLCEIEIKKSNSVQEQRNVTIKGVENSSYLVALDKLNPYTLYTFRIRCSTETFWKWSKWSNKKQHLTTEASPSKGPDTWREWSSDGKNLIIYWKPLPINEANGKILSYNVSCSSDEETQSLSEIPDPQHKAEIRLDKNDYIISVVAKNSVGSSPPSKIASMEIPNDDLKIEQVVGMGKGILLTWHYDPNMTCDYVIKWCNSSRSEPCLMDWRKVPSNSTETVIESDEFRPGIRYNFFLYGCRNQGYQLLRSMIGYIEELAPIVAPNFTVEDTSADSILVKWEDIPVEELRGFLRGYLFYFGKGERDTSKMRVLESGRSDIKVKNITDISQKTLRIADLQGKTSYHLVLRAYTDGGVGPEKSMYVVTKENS
T1 sequence (P40189 23-619): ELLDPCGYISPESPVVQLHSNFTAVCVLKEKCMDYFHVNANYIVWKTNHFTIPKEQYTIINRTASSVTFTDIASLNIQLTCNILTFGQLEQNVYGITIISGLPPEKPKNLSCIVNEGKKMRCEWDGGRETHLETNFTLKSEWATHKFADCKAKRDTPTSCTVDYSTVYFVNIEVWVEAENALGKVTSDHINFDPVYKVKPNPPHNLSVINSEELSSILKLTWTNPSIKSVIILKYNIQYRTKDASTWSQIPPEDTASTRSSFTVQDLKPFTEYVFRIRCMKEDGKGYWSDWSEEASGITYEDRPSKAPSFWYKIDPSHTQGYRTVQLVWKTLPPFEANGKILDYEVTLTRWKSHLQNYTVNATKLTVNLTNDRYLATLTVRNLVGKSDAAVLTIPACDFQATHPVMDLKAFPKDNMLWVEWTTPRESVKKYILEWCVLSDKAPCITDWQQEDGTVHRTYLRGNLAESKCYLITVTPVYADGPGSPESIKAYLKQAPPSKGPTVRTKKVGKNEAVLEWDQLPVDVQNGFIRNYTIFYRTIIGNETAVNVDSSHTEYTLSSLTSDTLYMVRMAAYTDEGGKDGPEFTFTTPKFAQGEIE
T1 sequence (P40223 627-837 partner limits assumed): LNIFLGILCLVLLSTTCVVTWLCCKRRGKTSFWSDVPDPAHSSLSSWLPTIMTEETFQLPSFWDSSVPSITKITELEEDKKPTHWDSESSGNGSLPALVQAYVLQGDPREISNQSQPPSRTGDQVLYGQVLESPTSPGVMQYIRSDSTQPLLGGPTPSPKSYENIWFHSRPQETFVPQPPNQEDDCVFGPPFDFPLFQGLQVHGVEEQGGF
Experiment: Growth response of chimeric LIF receptor-expressing Ba/F3 cell line LIG (WST-8)
Assay type: cell-based
Settings: 72 hours culture, WST-8 absorbance
Source text: Chimeric receptor DNAs were constructed by linking cDNA fragments encoding human LIF receptor (from the 1st to the 833rd amino acid residues; Gearing, D P. et al. […] EMBO J., 10, 2839-2848) and human gp130 (from the 1st to the 619th amino acid residues; Hibi, M. et al. (1990) Cell, 63, 1149-1157) with the transmembrane and intracellular domains (from the 602nd to the 813th amino acid residues; Fukunaga, R. et al. (1990) Cell 61, 341-350) of mouse G-CSF receptor, respectively. These constructs were inserted downstream of the HEF1α promoter of the mammalian expression vector pCV to construct chimeric receptors expression vectors, pCV-cLIFR and pCV-cgp130, respectively. pCV-cLIFR and pCV-cgp130 were linearized with Pvu I (Takara Shuzo), respectively, extracted with phenol and chloroform, and purified by ethanol precipitation. […]
The cells were washed twice with Media A, and were suspended in Media A to give a cell density of 5×10^4 cells/mL. […] After the culture, 10 μL/well WST-8 reagent (Cell Count Reagent SF; Nacalai Tesque) was added, and pre-reaction absorbance at a measurement wavelength of 450 nm and a control wavelength of 655 nm was measured using microplate reader (Model 3550, Bio Rad). The plate was incubated for two hours in a CO2 incubator (CO2 concentration, 5%), and post-reaction absorbance was measured as above. […]

concentration at which an evident growth reaction was observed: > 10 ng/mL
B1: human CNTF: human ciliary neurotrophic factor (Genzyme) (protein, UniProt P26441 1-200, looked up)
Ciliary neurotrophic factor: MAFTEHSPLTPHRRDLCSRSIWLARKIRSDLTALTESYVKHQGLNKNINLDSADGMPVASTDQWSELTEAERLQENLQAYRTFHVLLARLLEDQQVHFTPTEGDFHQAIHTLLLQVAAFAYQIEELMILLEYKIPRNEADGMPINVGDGGLFEKKLWGLKVLQELSQWTVRSIHDLRFISSHQTGIPARGSHYIANNKKM
